Assays:
[1] = target: T1, MICALMO-CH (mMICAL-1 residues 2-615) (Mus musculus, UniProt Q8VDP3, Q78K); test: X-ray crystallography, […] and […] Å; format: binding; conditions: oxidised FAD in the MO domain; two crystal forms
T1 construct: gene Mical1; MO plus CH domains, residues 2-615, Q78K to remove a protease site; extra Gly from vector; N-terminal His-tag removed with TEV; E. coli BL21, codon-optimised
T1 sequence (Q8VDP3 2-615 Q78K): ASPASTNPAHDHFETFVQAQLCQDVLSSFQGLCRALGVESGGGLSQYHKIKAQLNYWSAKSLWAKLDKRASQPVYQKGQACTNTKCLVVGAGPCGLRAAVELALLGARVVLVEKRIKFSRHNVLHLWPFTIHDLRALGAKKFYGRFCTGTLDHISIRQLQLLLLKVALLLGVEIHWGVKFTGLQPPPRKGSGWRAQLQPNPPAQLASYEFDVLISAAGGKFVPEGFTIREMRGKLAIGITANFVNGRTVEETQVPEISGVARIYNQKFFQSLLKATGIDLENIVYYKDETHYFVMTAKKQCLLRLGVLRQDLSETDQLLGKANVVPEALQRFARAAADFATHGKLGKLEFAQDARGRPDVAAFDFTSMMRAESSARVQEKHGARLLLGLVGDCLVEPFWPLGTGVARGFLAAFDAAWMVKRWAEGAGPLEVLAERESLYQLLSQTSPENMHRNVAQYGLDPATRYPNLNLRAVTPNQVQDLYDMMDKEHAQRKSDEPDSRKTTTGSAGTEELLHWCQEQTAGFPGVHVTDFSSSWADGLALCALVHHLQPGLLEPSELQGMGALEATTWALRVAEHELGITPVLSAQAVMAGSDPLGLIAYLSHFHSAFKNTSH

purified protein = substrate: NC(=O)C1=CN([C@@H]2O[C@H](COP(=O)(O)OP(=O)(O)OC[C@H]3O[C@@H](n4cnc5c(N)ncnc54)[C@H](OP(=O)(O)O)[C@@H]3O)[C@@H](O)[C@H]2O)C=CC1; test: purified protein; format: biochemical, Mus musculus; conditions: no F-actin, O2 as acceptor, 5 mM Tris-HCl pH 8.0, 50 mM KCl, 2 mM MgCl2, 0.2 mM CaCl2, 0.5 mM DTT, 1 mM ATP, 600 nM enzyme

| Molecule | X-ray crystallography, 2.31 and 2.88 Å [1] | Km (purified protein) | kcat (purified protein) |
| --- | --- | --- | --- |
| Cc1cc2nc3c(=O)[nH]c(=O)nc-3n(C[C@H](O)[C@H](O)[C@H](O)COP(=O)(O)OP(=O)(O)OC[C@H]3O[C@@H](n4cnc5c(N)ncnc54)[C@H](O)[C@@H]3O)c2cc1C [FAD] | In both crystal forms the FAD cofactor is oxidized and accessible through two openings | – | – |
| MICALMO-CH (mMICAL-1 residues 2-615) (Mus musculus; Q78K) (protein, MO plus CH domains, residues 2-615, Q78K to remove a protease site; extra Gly from vector; N-terminal His-tag removed with TEV; E. coli BL21, codon-optimised) ASPASTNPAHDHFETFVQAQLCQDVLSSFQGLCRALGVESGGGLSQYHKIKAQLNYWSAKSLWAKLDKRASQPVYQKGQACTNTKCLVVGAGPCGLRAAVELALLGARVVLVEKRIKFSRHNVLHLWPFTIHDLRALGAKKFYGRFCTGTLDHISIRQLQLLLLKVALLLGVEIHWGVKFTGLQPPPRKGSGWRAQLQPNPPAQLASYEFDVLISAAGGKFVPEGFTIREMRGKLAIGITANFVNGRTVEETQVPEISGVARIYNQKFFQSLLKATGIDLENIVYYKDETHYFVMTAKKQCLLRLGVLRQDLSETDQLLGKANVVPEALQRFARAAADFATHGKLGKLEFAQDARGRPDVAAFDFTSMMRAESSARVQEKHGARLLLGLVGDCLVEPFWPLGTGVARGFLAAFDAAWMVKRWAEGAGPLEVLAERESLYQLLSQTSPENMHRNVAQYGLDPATRYPNLNLRAVTPNQVQDLYDMMDKEHAQRKSDEPDSRKTTTGSAGTEELLHWCQEQTAGFPGVHVTDFSSSWADGLALCALVHHLQPGLLEPSELQGMGALEATTWALRVAEHELGITPVLSAQAVMAGSDPLGLIAYLSHFHSAFKNTSH | – | 37.7 ± 8.4 µM | 1.7 ± 0.5 s⁻¹ |
| MICALMO (mouse MICAL-1 MO domain, residues 1-484) (Mus musculus) (protein, isolated N-terminal FAD monooxygenase domain, residues 1-484 of 1048) MASPASTNPAHDHFETFVQAQLCQDVLSSFQGLCRALGVESGGGLSQYHKIKAQLNYWSAKSLWAKLDKRASQPVYQQGQACTNTKCLVVGAGPCGLRAAVELALLGARVVLVEKRIKFSRHNVLHLWPFTIHDLRALGAKKFYGRFCTGTLDHISIRQLQLLLLKVALLLGVEIHWGVKFTGLQPPPRKGSGWRAQLQPNPPAQLASYEFDVLISAAGGKFVPEGFTIREMRGKLAIGITANFVNGRTVEETQVPEISGVARIYNQKFFQSLLKATGIDLENIVYYKDETHYFVMTAKKQCLLRLGVLRQDLSETDQLLGKANVVPEALQRFARAAADFATHGKLGKLEFAQDARGRPDVAAFDFTSMMRAESSARVQEKHGARLLLGLVGDCLVEPFWPLGTGVARGFLAAFDAAWMVKRWAEGAGPLEVLAERESLYQLLSQTSPENMHRNVAQYGLDPATRYPNLNLRAVTPNQVQDLYD | – | 28.8 ± 2.2 µM | 0.68 ± 0.02 s⁻¹ |
